Assay results taken from patent US20240301081A1.
Where a chain is given by its changes, count along the chain named.

B1: hu CD45 HC2 + LC1 (antibody, V domains shown)
VH: EVQLLESGGGLVQPGGSLRLSCAASGFDFSRYWMSWVRQAPGKGLEWVSEINPTSSTINYADSVKGRFTISRDNSKNTLYLQMNSLRAEDTAVYYCARGNYYRYGDAMDYWGQGTMVTVSS
VL: DIVMTQSPDSLAVSLGERATINCKSSKSVSTSGYSYLHWYQQKPGQPPKLLIYLASNLESGVPDRFSGSGSGTDFTLTISSLQAEDVAVYYCQHSRELPFTFGQGTKLEIK
B2: hu CD45 HC2 + LC3 (antibody, V domains shown)
VH: B1 VH
VL: EIVLTQSPATLSLSPGERATLSCRASKSVSTSGYSYLHWYQQKPGQAPRLLIYLASNLATGIPARFSGSGSGTDFTLTISSLEPEDFAVYYCQHSRELPFTFGQGTKLEIK
B3: hu CD45 HC3 + LC1 (antibody, V domains shown)
VH: B1 VH with L5V, S49A, Y60F, A61V, S75A, T78S
VL: B1 VL
B4: hu CD45 HC2 + LC4 (antibody, V domains shown)
VH: B1 VH
VL: DIQMTQSPSSLSASVGDRVTITCRASKSVSTSGYSYLHWYQQKPGKAPKLLIYLASNLQSGVPSRFSGSGSGTDFTLTISSLQPEDFATYYCQHSRELPFTFGQGTKLEIK
B5: hu CD45 HC4 + LC1 (antibody, V domains shown)
VH: B1 VH with L5V, Q13K, S75A, T78S
VL: B1 VL
B6: hu CD45 HC4 + LC3 (antibody, V domains shown)
VH: B1 VH with L5V, Q13K, S75A, T78S
VL: B2 VL
B7: hu CD45 HC3 + LC4 (antibody, V domains shown)
VH: B1 VH with L5V, S49A, Y60F, A61V, S75A, T78S
VL: B4 VL
B8: hu CD45 HC4 + LC4 (antibody, V domains shown)
VH: B1 VH with L5V, Q13K, S75A, T78S
VL: B4 VL

Biological target: rhCD45 His tag (human) (UniProt P08575)
Sequence of UniProt P08575 (P08575 26-577): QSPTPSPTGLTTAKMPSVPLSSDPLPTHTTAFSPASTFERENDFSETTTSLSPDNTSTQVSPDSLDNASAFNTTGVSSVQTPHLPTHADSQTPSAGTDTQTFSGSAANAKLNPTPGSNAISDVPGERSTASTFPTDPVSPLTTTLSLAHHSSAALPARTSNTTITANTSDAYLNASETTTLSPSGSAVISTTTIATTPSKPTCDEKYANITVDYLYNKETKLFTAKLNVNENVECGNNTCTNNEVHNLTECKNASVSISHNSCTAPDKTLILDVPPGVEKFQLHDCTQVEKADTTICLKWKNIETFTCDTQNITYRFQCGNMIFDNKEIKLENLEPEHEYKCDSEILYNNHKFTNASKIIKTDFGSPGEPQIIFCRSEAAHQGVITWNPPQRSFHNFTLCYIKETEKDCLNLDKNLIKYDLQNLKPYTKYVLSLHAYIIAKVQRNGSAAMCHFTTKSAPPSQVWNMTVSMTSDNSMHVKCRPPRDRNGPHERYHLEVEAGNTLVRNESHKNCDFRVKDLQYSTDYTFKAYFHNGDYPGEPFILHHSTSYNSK
Assay: BLI (Octet HTX), compared with the parental antibody

| Binder | fold change in KD relative to the parental antibody [fold] |
| --- | --- |
| B1 | < 10 |
| B2 | < 10 |
| B3 | < 10 |
| B4 | < 10 |
| B5 | < 10 |
| B6 | < 10 |
| B7 | < 10 |
| B8 | < 10 |
